± gives the uncertainty stated by the source.
B1: Pyruvate dehydrogenase protein X component, mitochondrial, residues 181 to 227; numbered along this chain, O00330 (parent)
chain: RFRLSPAARNILEKHSLDASQGTATGPRGIFTKEDALKLVQLKQTGK
B2: Chromodomain-helicase-DNA-binding protein 5, residues 411 to 463; numbered along this chain, Q8TDI0 (parent)
chain: EEDDHMEFCRVCKDGGELLCCDACPSSYHLHCLNPPLPEIPNGEWLCPRCTCP

Variants of: B1
Test: abundance fitness (aPCA) (normalised: wild type 0, dead -1); higher = more abundant; growth selection in yeast, the domain comes from the species named
Conditions: Homo sapiens
Variant RFRLSPAARNILEKHSLDASQGTATGPRGIFTKEDALKGVQLKQTGK [L39G] has an abundance fitness of -0.222 ± 0.062.
Variant RFALSPAARNILEKHSLDASQGTATGPRGIFTKEDALKLVQLKQTGK [R3A] has an abundance fitness of -0.504 ± 0.061.
For RFMLSPAARNILEKHSLDASQGTATGPRGIFTKEDALKLVQLKQTGK [R3M], the abundance fitness was -0.091 ± 0.077.
RFRLSPAARNILEKHSLDASQGTATDPRGIFTKEDALKLVQLKQTGK [G26D] gave an abundance fitness of -0.444 ± 0.056.
RFRLSPAAKNILEKHSLDASQGTATGPRGIFTKEDALKLVQLKQTGK [R9K] showed an abundance fitness of 0.1 ± 0.05.
RFRLSPAARNIMEKHSLDASQGTATGPRGIFTKEDALKLVQLKQTGK [L12M] gave an abundance fitness of -0.263 ± 0.074.
Work on RFRLSPAARNILEKHSLDASQGTATGPRGIFTKEDALKLVILKQTGK [Q41I] yielded an abundance fitness of -0.648 ± 0.12.
Variant RFRLSPAARNILEKHSLDASQGTATGPRGIFTKEEALKLVQLKQTGK [D35E] has an abundance fitness of -0.439 ± 0.2.
For RFRLSPAARNILEKHSLDASQGTATGPRGIFTKEVALKLVQLKQTGK [D35V], the abundance fitness was -1 ± 0.1.
With RFRLSPAARNILEKHSLDASQGTATGPRGIFTKEDALKLVQLKQGGK [T45G] the abundance fitness was 0.166 ± 0.057.
RFRLSPAARNILEDHSLDASQGTATGPRGIFTKEDALKLVQLKQTGK [K14D] showed an abundance fitness of -0.172 ± 0.058.
With RFRLSPAARNILEFHSLDASQGTATGPRGIFTKEDALKLVQLKQTGK [K14F] the abundance fitness was -0.146 ± 0.11.
RFRLSPAARNILEEHSLDASQGTATGPRGIFTKEDALKLVQLKQTGK [K14E] gave an abundance fitness of 0.19 ± 0.067.
Variant KFRLSPAARNILEKHSLDASQGTATGPRGIFTKEDALKLVQLKQTGK [R1K] has an abundance fitness of -0.289 ± 0.17.
RFRLSPAARNILEKHSLDASYGTATGPRGIFTKEDALKLVQLKQTGK [Q21Y] showed an abundance fitness of -0.481 ± 0.14.
Variant RFRLSPAARNILEKHSLDPSQGTATGPRGIFTKEDALKLVQLKQTGK [A19P] has an abundance fitness of 0.249 ± 0.06.
RFRLSPAARMILEKHSLDASQGTATGPRGIFTKEDALKLVQLKQTGK [N10M] showed an abundance fitness of -0.052 ± 0.087.
Work on RFRLSPAARNILEKHSLDASQGTATGPRGIFTKCDALKLVQLKQTGK [E34C] yielded an abundance fitness of -0.437 ± 0.17.
RFRLSPAARNILEKHSLDASQGTATGPLGIFTKEDALKLVQLKQTGK [R28L] gave an abundance fitness of -0.161 ± 0.045.
For RFRLSPAQRNILEKHSLDASQGTATGPRGIFTKEDALKLVQLKQTGK [A8Q], the abundance fitness was -0.601 ± 0.087.
With RFRLSPAARNILEKHSLDASQGTATGPRGIFTKEDALKLVQLKTTGK [Q44T] the abundance fitness was -0.451 ± 0.13.
Work on RFRLSPAARNILEKHSLDASQGTATGPRGIGTKEDALKLVQLKQTGK [F31G] yielded an abundance fitness of -0.195 ± 0.072.
RFRLSPAARNILEKHSLDASQYTATGPRGIFTKEDALKLVQLKQTGK [G22Y] showed an abundance fitness of -0.623 ± 0.08.
For RFRLSPAARNILEKHSLDASQGTATGPRGIFTKEDALKLVQLKQTGE [K47E], the abundance fitness was 0.284 ± 0.2.
RFRLSPAARNILEKHSLDASQGTATGPRGIFTKEDALKLVQLKQTGR [K47R] showed an abundance fitness of -0.293 ± 0.35.
Variant RFRLSPAARNILEKHSLDASQGTATGPRGIFTKEDALKLVQQKQTGK [L42Q] has an abundance fitness of 0.115 ± 0.064.
RFRLSPAARNILEKHSLDASQGTATGPRGIFTKEDALKLVQSKQTGK [L42S] showed an abundance fitness of -0.247 ± 0.081.
With RFRLSPAARNHLEKHSLDASQGTATGPRGIFTKEDALKLVQLKQTGK [I11H] the abundance fitness was -0.369 ± 0.11.
With RFRLSPAARNELEKHSLDASQGTATGPRGIFTKEDALKLVQLKQTGK [I11E] the abundance fitness was -0.528 ± 0.075.

Variants of: B2
Test: as above
Conditions: Homo sapiens
For R10C, the abundance fitness was -0.296 ± 0.087.
Work on R10I yielded an abundance fitness of -0.089 ± 0.086.
For R10Q, the abundance fitness was -0.106 ± 0.11.
Variant R10Y has an abundance fitness of 0.037 ± 0.061.
R10W showed an abundance fitness of -0.212 ± 0.086.
R10A gave an abundance fitness of -0.219 ± 0.075.
For R10N, the abundance fitness was 0.026 ± 0.11.
With R10T the abundance fitness was 0.012 ± 0.086.
In the case of C12T, the abundance fitness is reported as -0.581 ± 0.099.
G16C showed an abundance fitness of -0.183 ± 0.21.
G16A showed an abundance fitness of -0.629 ± 0.17.
G16N gave an abundance fitness of -0.369 ± 0.4.
With G16D the abundance fitness was -0.003 ± 0.14.
For G16R, the abundance fitness was -0.518 ± 0.14.
With G16M the abundance fitness was -0.301 ± 0.13.
In the case of L19R, the abundance fitness is reported as -0.078 ± 0.06.
P41Q showed an abundance fitness of -0.051 ± 0.11.
With P41S the abundance fitness was 0.047 ± 0.078.
P41R gave an abundance fitness of -0.004 ± 0.045.
With P41T the abundance fitness was 0.002 ± 0.073.
Work on P41G yielded an abundance fitness of 0.064 ± 0.078.
H29Y showed an abundance fitness of -0.652 ± 0.26.
Variant H29S has an abundance fitness of -0.825 ± 0.14.
Variant V11L has an abundance fitness of -0.1 ± 0.053.
Variant V11K has an abundance fitness of 0.122 ± 0.09.
With V11P the abundance fitness was -0.795 ± 0.12.
With V11S the abundance fitness was -0.118 ± 0.058.
Work on V11A yielded an abundance fitness of -0.276 ± 0.058.
Variant N34P has an abundance fitness of -0.463 ± 0.14.
For N34H, the abundance fitness was -0.303 ± 0.2.
Variant N34K has an abundance fitness of 0.046 ± 0.1.
N34A showed an abundance fitness of -0.018 ± 0.052.
For N34D, the abundance fitness was -0.27 ± 0.12.
For N34C, the abundance fitness was -0.074 ± 0.1.
For N34T, the abundance fitness was -0.189 ± 0.099.
Variant S27H has an abundance fitness of 0.026 ± 0.064.
Variant S27F has an abundance fitness of 0.152 ± 0.092.
With S27M the abundance fitness was -0.052 ± 0.078.
S27L showed an abundance fitness of -0.039 ± 0.054.
Variant S27I has an abundance fitness of -0.345 ± 0.12.
W45D gave an abundance fitness of -0.761 ± 0.18.
W45Y showed an abundance fitness of -0.299 ± 0.1.
With W45A the abundance fitness was -0.45 ± 0.058.
For W45T, the abundance fitness was -0.7 ± 0.082.
In the case of C20E, the abundance fitness is reported as -0.049 ± 0.079.
C20Q showed an abundance fitness of 0.031 ± 0.047.
With C20S the abundance fitness was -0.008 ± 0.055.
Work on C47M yielded an abundance fitness of -0.906 ± 0.17.
In the case of C47K, the abundance fitness is reported as -0.848 ± 0.21.
In the case of C47F, the abundance fitness is reported as -0.318 ± 0.12.
Variant C47P has an abundance fitness of -0.899 ± 0.085.
Work on C47R yielded an abundance fitness of -0.737 ± 0.058.
C47S gave an abundance fitness of -0.653 ± 0.048.
In the case of C47V, the abundance fitness is reported as -0.808 ± 0.084.
H5Q showed an abundance fitness of -0.028 ± 0.049.
Variant H5R has an abundance fitness of -0.089 ± 0.041.
For H5D, the abundance fitness was -0.177 ± 0.076.
For H5Y, the abundance fitness was -0.058 ± 0.048.
In the case of H5N, the abundance fitness is reported as 0.117 ± 0.064.
For H5F, the abundance fitness was 0.067 ± 0.053.
Variant H5A has an abundance fitness of -0.26 ± 0.042.
H5M showed an abundance fitness of -0.223 ± 0.043.
For C50F, the abundance fitness was -0.756 ± 0.093.
In the case of C50P, the abundance fitness is reported as -0.517 ± 0.052.
C50M showed an abundance fitness of -0.77 ± 0.065.
C50R showed an abundance fitness of -0.686 ± 0.049.
C50Q showed an abundance fitness of -0.619 ± 0.049.
Work on C50Y yielded an abundance fitness of -0.568 ± 0.11.
In the case of C50A, the abundance fitness is reported as -0.628 ± 0.055.
Variant G43K has an abundance fitness of -0.037 ± 0.12.
In the case of G43H, the abundance fitness is reported as -0.148 ± 0.1.
For G43E, the abundance fitness was 0.003 ± 0.071.
In the case of G43L, the abundance fitness is reported as -0.152 ± 0.068.
Variant G43T has an abundance fitness of -0.142 ± 0.09.
With G43I the abundance fitness was -0.392 ± 0.14.
In the case of L37A, the abundance fitness is reported as 0.031 ± 0.043.
In the case of L37N, the abundance fitness is reported as -0.229 ± 0.18.
L37P showed an abundance fitness of -0.113 ± 0.077.
Variant L37E has an abundance fitness of -0.041 ± 0.099.
L37Y gave an abundance fitness of -0.109 ± 0.07.
For L37I, the abundance fitness was -0.023 ± 0.096.
L37T showed an abundance fitness of -0.005 ± 0.071.
Variant L37H has an abundance fitness of 0.268 ± 0.094.
L33N gave an abundance fitness of -0.971 ± 0.19.
With L33T the abundance fitness was -0.198 ± 0.049.
L33P showed an abundance fitness of -0.496 ± 0.11.
Variant L33Y has an abundance fitness of -0.482 ± 0.12.
Work on L33E yielded an abundance fitness of -0.452 ± 0.074.
In the case of P36M, the abundance fitness is reported as -0.026 ± 0.082.
P36V showed an abundance fitness of 0.066 ± 0.088.
With P36I the abundance fitness was 0.125 ± 0.12.
P36N showed an abundance fitness of -0.591 ± 0.32.
Variant T51P has an abundance fitness of -0.078 ± 0.089.
T51S showed an abundance fitness of -0.089 ± 0.046.
For T51V, the abundance fitness was -0.084 ± 0.064.
T51K gave an abundance fitness of 0.049 ± 0.089.
In the case of E7C, the abundance fitness is reported as 0.095 ± 0.13.
Work on E7I yielded an abundance fitness of -0.123 ± 0.074.
P48H showed an abundance fitness of 0.014 ± 0.13.
P48V showed an abundance fitness of -0.24 ± 0.075.
P48K gave an abundance fitness of -0.419 ± 0.14.
Work on P48W yielded an abundance fitness of -0.412 ± 0.12.
P48T gave an abundance fitness of -0.004 ± 0.092.
With G15C the abundance fitness was -0.517 ± 0.12.
With G15R the abundance fitness was 0.087 ± 0.058.
Variant N42I has an abundance fitness of -0.346 ± 0.19.
Variant N42C has an abundance fitness of 0.033 ± 0.1.
Work on N42S yielded an abundance fitness of 0.058 ± 0.053.

From the Human Domainome abundance scans (Beltran et al. 2025)
